Source: the supplement of paper PMC11865577

Assays:
Assay in all cases: pull-down binding Z-score (relative to library population); higher = stronger binding
TO-N3 (biotin conjugate) = details: RNA library: Library-2
Method in brief: (§1)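 To score binding, a beads-only signal was subtracted, barcoded replicate probes were averaged with the highest and lowest dropped, and the value was converted to a Z-score using the library mean and standard deviation. The input was 1 μg of Cy5- or Cy3-end-labelled RNA library, heat-folded in phosphate/NaCl/KCl buffer and mixed for 60 min at 25 °C with streptavidin beads carrying 100 pmol of biotin-conjugated small molecule. Bound RNA was eluted in hot SDS and hybridised to a DNA barcode microarray at 55.5 °C for 20 h.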

[1] = test system: TO-3-N3-2 (biotin conjugate); details: RNA library: Library-2
Method in brief: as §1

[2] = test system: TO-3-N3 (biotin conjugate); details: RNA library: Library-2
Method in brief: as §1

[3] = test system: G-clamp-N3 (biotin conjugate); details: RNA library: Library-1 (pre-miRNA loops + repeats)
Method in brief: as §1

[4] = test system: TO-N3-2 (biotin conjugate); details: RNA library: Library-2
Method in brief: as §1

AAUUUUGAUGAGUAUCAUAGGAGAAAAAUU [hsa-mir-363]
pull-down binding Z-score (TO-N3 (biotin conjugate)): -0.184 | pull-down binding Z-score [1]: 0.27 | pull-down binding Z-score [2]: -0.302 | pull-down binding Z-score [3]: 1.49 | pull-down binding Z-score [4]: 0.542

AAUUUUUUUUUAAUUUAAAAAAUU [hsa-mir-3938]
pull-down binding Z-score (TO-N3 (biotin conjugate)): -1.13 | pull-down binding Z-score [1]: 0.127 | pull-down binding Z-score [2]: -0.808 | pull-down binding Z-score [3]: 0.843 | pull-down binding Z-score [4]: -1.36

ACAAUAUGCUAUUAUAAUCGUAUGGCAUUGU [hsa-mir-2355]
pull-down binding Z-score (TO-N3 (biotin conjugate)): -1.18 | pull-down binding Z-score [1]: -0.546 | pull-down binding Z-score [2]: -0.919 | pull-down binding Z-score [3]: 0.228 | pull-down binding Z-score [4]: -0.994

ACAAUUAUGAAAGAAAAGAAAUUGU [hsa-mir-3611]
pull-down binding Z-score (TO-N3 (biotin conjugate)): -0.636 | pull-down binding Z-score [1]: 0.327 | pull-down binding Z-score [2]: -0.386 | pull-down binding Z-score [3]: 0.163 | pull-down binding Z-score [4]: -0.566

ACACACACCAGACUAUGGAAGCCAGUGU [hsa-mir-147a]
pull-down binding Z-score (TO-N3 (biotin conjugate)): -0.528 | pull-down binding Z-score [1]: -0.471 | pull-down binding Z-score [2]: -0.455 | pull-down binding Z-score [3]: -0.656 | pull-down binding Z-score [4]: 0.0135

ACACCUGUAAAGAAUUGGUCAGCCUGGGGACUGGUGAUCUCUGCAGCUGU [hsa-mir-4265]
pull-down binding Z-score (TO-N3 (biotin conjugate)): 1.39 | pull-down binding Z-score [1]: 0.475 | pull-down binding Z-score [2]: 1.15 | pull-down binding Z-score [3]: -0.15 | pull-down binding Z-score [4]: 1.42

ACACUGCGCUGCCCCAGACCCACUGU [hsa-mir-210]
pull-down binding Z-score (TO-N3 (biotin conjugate)): 0.83 | pull-down binding Z-score [1]: 0.103 | pull-down binding Z-score [2]: 0.364 | pull-down binding Z-score [3]: -1.18 | pull-down binding Z-score [4]: 0.683

ACACUGGGCUGCCCCCACUGCCCAGUGC [hsa-mir-4277]
pull-down binding Z-score (TO-N3 (biotin conjugate)): 0.594 | pull-down binding Z-score [1]: -0.357 | pull-down binding Z-score [2]: 0.676 | pull-down binding Z-score [3]: -0.963 | pull-down binding Z-score [4]: 0.413

ACACUUCCUAUAUGUAUCCACAUAUAUAUAGU [hsa-mir-568]
pull-down binding Z-score (TO-N3 (biotin conjugate)): -0.69 | pull-down binding Z-score [1]: -0.0673 | pull-down binding Z-score [2]: -0.562 | pull-down binding Z-score [3]: 0.00925 | pull-down binding Z-score [4]: -0.936

ACAGAGUGAGAUGGUCUUGUUUUGU [hsa-mir-5684]
pull-down binding Z-score (TO-N3 (biotin conjugate)): -0.673 | pull-down binding Z-score [1]: -0.409 | pull-down binding Z-score [2]: -0.542 | pull-down binding Z-score [3]: 0.00683 | pull-down binding Z-score [4]: -0.546

ACAGCAGUCUUACUGAAGGUUUCCUGGAAACCACGCACAUGCUGU [hsa-mir-744]
pull-down binding Z-score (TO-N3 (biotin conjugate)): -0.165 | pull-down binding Z-score [1]: -0.233 | pull-down binding Z-score [2]: -0.304 | pull-down binding Z-score [3]: -0.613 | pull-down binding Z-score [4]: -0.5

ACAGCCAGUGCUCUCGUCUCCCCUCUGGCUGC [hsa-mir-192]
pull-down binding Z-score (TO-N3 (biotin conjugate)): 0.925 | pull-down binding Z-score [1]: 0.236 | pull-down binding Z-score [2]: 0.839 | pull-down binding Z-score [3]: 0.589 | pull-down binding Z-score [4]: 0.949

ACAGCGCCACGGAAGAGGACGCA [hsa-mir-941-4_941-5_941-2_941-3_941-1]
pull-down binding Z-score (TO-N3 (biotin conjugate)): 0.495 | pull-down binding Z-score [1]: -0.211 | pull-down binding Z-score [2]: 0.0968 | pull-down binding Z-score [3]: -0.758 | pull-down binding Z-score [4]: 0.874

ACAGGUAGUGGCCACAGUGAGAAAGCUGGCCUGUCCUUCUGC [hsa-mir-4314]
pull-down binding Z-score (TO-N3 (biotin conjugate)): 0.245 | pull-down binding Z-score [1]: 0.0324 | pull-down binding Z-score [2]: -0.00864 | pull-down binding Z-score [3]: -0.00957 | pull-down binding Z-score [4]: 0.681

ACAGUGGACUUGGUGACGCUGU [hsa-mir-675]
pull-down binding Z-score (TO-N3 (biotin conjugate)): -0.456 | pull-down binding Z-score [1]: -0.252 | pull-down binding Z-score [2]: -0.46 | pull-down binding Z-score [3]: 1.67 | pull-down binding Z-score [4]: -0.259

ACAGUGGCCACAUCUCCAC [hsa-mir-1184-3_1184-2_1184-1]
pull-down binding Z-score (TO-N3 (biotin conjugate)): 1.17 | pull-down binding Z-score [1]: 0.472 | pull-down binding Z-score [2]: 1.11 | pull-down binding Z-score [3]: -1.28 | pull-down binding Z-score [4]: 0.582

ACAGUUUGAGGGUCUAUGAUACCACCCGGUACAGGAGAUAACUGU [hsa-let-7g]
pull-down binding Z-score (TO-N3 (biotin conjugate)): -0.0397 | pull-down binding Z-score [1]: -0.136 | pull-down binding Z-score [2]: -0.508 | pull-down binding Z-score [3]: 0.817 | pull-down binding Z-score [4]: 0.988

ACAUGAAAAUAAAAUGUAAAUUAUUUUAUUUCUAUCA [hsa-mir-3671]
pull-down binding Z-score (TO-N3 (biotin conjugate)): 0.652 | pull-down binding Z-score [1]: 0.294 | pull-down binding Z-score [2]: 0.665 | pull-down binding Z-score [3]: -0.346 | pull-down binding Z-score [4]: -0.163

ACAUGCAGUAUUUGG [hsa-mir-1302-8]
pull-down binding Z-score (TO-N3 (biotin conjugate)): -0.242 | pull-down binding Z-score [1]: -0.047 | pull-down binding Z-score [2]: -0.326 | pull-down binding Z-score [3]: 0.976 | pull-down binding Z-score [4]: -0.0326

ACAUUUGCAACCUGUGAAGAUGCAAAACUUUAAGUGU [hsa-mir-2053]
pull-down binding Z-score (TO-N3 (biotin conjugate)): -0.853 | pull-down binding Z-score [1]: -0.262 | pull-down binding Z-score [2]: -0.699 | pull-down binding Z-score [3]: -0.673 | pull-down binding Z-score [4]: -0.701

ACCAAAAAUGAUAUGGGU [hsa-mir-7977]
pull-down binding Z-score (TO-N3 (biotin conjugate)): -0.532 | pull-down binding Z-score [1]: 0.11 | pull-down binding Z-score [2]: -0.344 | pull-down binding Z-score [3]: 1.5 | pull-down binding Z-score [4]: -0.381

ACCAAAACACUCAUCGCGG [hsa-mir-1260a]
pull-down binding Z-score (TO-N3 (biotin conjugate)): -0.188 | pull-down binding Z-score [1]: 0.105 | pull-down binding Z-score [2]: -0.138 | pull-down binding Z-score [3]: -0.734 | pull-down binding Z-score [4]: -0.00378

ACCACCCAGGCCUUAUGGCUUCAUA [hsa-mir-7974]
pull-down binding Z-score (TO-N3 (biotin conjugate)): 0.233 | pull-down binding Z-score [1]: -0.0756 | pull-down binding Z-score [2]: -0.102 | pull-down binding Z-score [3]: -1.68 | pull-down binding Z-score [4]: 0.0927

ACCACUGUGAAGACAGUAAAAUGUACAGUGGU [hsa-mir-597]
pull-down binding Z-score (TO-N3 (biotin conjugate)): -0.598 | pull-down binding Z-score [1]: -0.0901 | pull-down binding Z-score [2]: -0.324 | pull-down binding Z-score [3]: 0.0112 | pull-down binding Z-score [4]: -1.1

ACCAUAGUCAUAAGUUAGGAGAUGUUAGAGCUGUGAGU [hsa-mir-4286]
pull-down binding Z-score (TO-N3 (biotin conjugate)): -0.108 | pull-down binding Z-score [1]: 0.296 | pull-down binding Z-score [2]: -0.464 | pull-down binding Z-score [3]: 0.233 | pull-down binding Z-score [4]: 0.807

ACCAUAUCUAAGCUAAUGUGGUGGU [hsa-mir-876]
pull-down binding Z-score (TO-N3 (biotin conjugate)): -0.139 | pull-down binding Z-score [1]: 0.00992 | pull-down binding Z-score [2]: -0.157 | pull-down binding Z-score [3]: 0.651 | pull-down binding Z-score [4]: -0.259

ACCCAGGACUCUUUCAUGACCA [hsa-mir-665]
pull-down binding Z-score (TO-N3 (biotin conjugate)): 0.101 | pull-down binding Z-score [1]: 0.144 | pull-down binding Z-score [2]: -0.0474 | pull-down binding Z-score [3]: -0.54 | pull-down binding Z-score [4]: 0.384

ACCCGGGUGGUGGAGGUUGCAGUGAGCCAAGAUUGCGCCACUGCACUCCAGCCUGGGC [hsa-mir-1273a]
pull-down binding Z-score (TO-N3 (biotin conjugate)): 1.94 | pull-down binding Z-score [1]: 0.442 | pull-down binding Z-score [2]: 1.06 | pull-down binding Z-score [3]: -0.139 | pull-down binding Z-score [4]: 1.66

ACCCUGCAGCCCCAGCUGGAGGAUGAGGAGAUGCUGGGCUUGGGU [hsa-mir-4313]
pull-down binding Z-score (TO-N3 (biotin conjugate)): 1.73 | pull-down binding Z-score [1]: 1.45 | pull-down binding Z-score [2]: 0.794 | pull-down binding Z-score [3]: 1.16 | pull-down binding Z-score [4]: 2.93

ACCUAACACACUGCCUUUUAUGUGGUAGGU [hsa-mir-5094]
pull-down binding Z-score (TO-N3 (biotin conjugate)): -1.02 | pull-down binding Z-score [1]: -0.66 | pull-down binding Z-score [2]: -0.678 | pull-down binding Z-score [3]: -1.19 | pull-down binding Z-score [4]: -1.14

ACCUCCUGGCUUUUCCUCUGCAGCAUGGCUCGGACCUAGUGCAAUGUUUAAGCU [hsa-mir-6826]
pull-down binding Z-score (TO-N3 (biotin conjugate)): 0.659 | pull-down binding Z-score [1]: 0.506 | pull-down binding Z-score [2]: 0.104 | pull-down binding Z-score [3]: -0.435 | pull-down binding Z-score [4]: 0.769

ACCUGUGUGUGCCCAAGUGUUUCUAGCAAACACAGGG [hsa-mir-3649]
pull-down binding Z-score (TO-N3 (biotin conjugate)): 0.757 | pull-down binding Z-score [1]: 0.425 | pull-down binding Z-score [2]: 0.76 | pull-down binding Z-score [3]: 0.215 | pull-down binding Z-score [4]: 0.193

ACCUUCCAAGGCUCAGAAGGU [hsa-mir-4650-1_4650-2]
pull-down binding Z-score (TO-N3 (biotin conjugate)): -0.702 | pull-down binding Z-score [1]: -0.432 | pull-down binding Z-score [2]: -0.702 | pull-down binding Z-score [3]: -0.155 | pull-down binding Z-score [4]: -0.0713

ACGAGAGUGAGUAGCAGGUCUC [hsa-mir-128-2]
pull-down binding Z-score (TO-N3 (biotin conjugate)): 0.627 | pull-down binding Z-score [1]: 0.361 | pull-down binding Z-score [2]: -0.117 | pull-down binding Z-score [3]: 2.31 | pull-down binding Z-score [4]: 1.51

ACGAUAUAGGUAUGUAUGUAUGUAUGUAUAAAAGCAGGGCAGUAUAUAUAUCGU [hsa-mir-4536-2]
pull-down binding Z-score (TO-N3 (biotin conjugate)): 0.862 | pull-down binding Z-score [1]: 0.723 | pull-down binding Z-score [2]: 0.847 | pull-down binding Z-score [3]: 1.53 | pull-down binding Z-score [4]: 0.482

ACGAUAUAUAUACUGCCCUGCUUUUAUACAUACAUACAUACAUACCUAUAUCGU [hsa-mir-4536-1]
pull-down binding Z-score (TO-N3 (biotin conjugate)): -0.734 | pull-down binding Z-score [1]: -0.00614 | pull-down binding Z-score [2]: -0.603 | pull-down binding Z-score [3]: -0.956 | pull-down binding Z-score [4]: -0.809
